Laboratory results reported in the supplement of paper PMC9112550, “Optimization of the antimicrobial peptide Bac7 by deep mutational scanning” (BMC Biology, 2022).
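Note: peptides expressed intracellularly from a pBAD plasmid library in pooled LB shake-flask culture, induced with 0.3% L-arabinose, DNA abundance read by NGS, three biological replicates, DESeq2 with apeglm shrinkage.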

Each sequence was assayed on Escherichia coli TOP10 (assay: shrunken log2 fold change of peptide-encoding DNA abundance (4.5 h post-induction vs induction); higher = less antimicrobial activity (less host growth inhibition)). Conditions: time post-induction: 4.5 h; library: site-saturation at positions 5, 18, 19, 20.
In the case of RRIRWRPPRLPRPRPRPWSEPRP, the “shrunken log2 fold change” value was -0.206. With RRIRDRPPRLPRPRPRPHLEPRP the “shrunken log2 fold change” value was -0.169. In the case of RRIRHRPPRLPRPRPRPHADPRP, the “shrunken log2 fold change” value was -0.208. In the case of RRIRLRPPRLPRPRPRPRHMPRP, the “shrunken log2 fold change” value was -0.287. RRIRVRPPRLPRPRPRPNPKPRP was tested, and the “shrunken log2 fold change” value was -0.0645. In the case of RRIRHRPPRLPRPRPRPTDVPRP, the “shrunken log2 fold change” value was -0.217. With RRIRERPPRLPRPRPRPEEAPRP the “shrunken log2 fold change” value was 0.353. With RRIRARPPRLPRPRPRPCLDPRP the “shrunken log2 fold change” value was 0.313. With RRIRGRPPRLPRPRPRPVVPPRP the “shrunken log2 fold change” value was 0.338. For RRIRVRPPRLPRPRPRPPHSPRP, the “shrunken log2 fold change” value was 0.108. For RRIRRRPPRLPRPRPRPSADPRP, the “shrunken log2 fold change” value was 0.247. For RRIRIRPPRLPRPRPRPQTTPRP, the “shrunken log2 fold change” value was -0.38. For RRIRKRPPRLPRPRPRPNKWPRP, the “shrunken log2 fold change” value was -0.0156. RRIRRRPPRLPRPRPRPAIRPRP was tested, and the “shrunken log2 fold change” value was -0.0892. With RRIRKRPPRLPRPRPRPSTPPRP the “shrunken log2 fold change” value was 0.0478. RRIRTRPPRLPRPRPRPILCPRP was tested, and the “shrunken log2 fold change” value was -0.0876. In the case of RRIRRRPPRLPRPRPRPLYVPRP, the “shrunken log2 fold change” value was -0.379. With RRIRVRPPRLPRPRPRPRPFPRP the “shrunken log2 fold change” value was 0.351. With RRIRMRPPRLPRPRPRPWFPPRP the “shrunken log2 fold change” value was -0.0494. In the case of RRIRRRPPRLPRPRPRPKDQPRP, the “shrunken log2 fold change” value was 0.26. With RRIRPRPPRLPRPRPRPQSCPRP the “shrunken log2 fold change” value was -0.0478. RRIRPRPPRLPRPRPRPGNHPRP was tested, and the “shrunken log2 fold change” value was -0.16. RRIRWRPPRLPRPRPRPQQNPRP was tested, and the “shrunken log2 fold change” value was -0.00819. RRIRARPPRLPRPRPRPPASPRP was tested, and the “shrunken log2 fold change” value was 0.77. For RRIRIRPPRLPRPRPRPQKWPRP, the “shrunken log2 fold change” value was -0.0915. For RRIRQRPPRLPRPRPRPDMLPRP, the “shrunken log2 fold change” value was 0.0939. With RRIRWRPPRLPRPRPRPPNWPRP the “shrunken log2 fold change” value was 0.603. With RRIRERPPRLPRPRPRPFTMPRP the “shrunken log2 fold change” value was -0.585. For RRIRHRPPRLPRPRPRPKNWPRP, the “shrunken log2 fold change” value was 0.136. With RRIRRRPPRLPRPRPRPFTNPRP the “shrunken log2 fold change” value was 0.103. With RRIRQRPPRLPRPRPRPHMFPRP the “shrunken log2 fold change” value was 0.0177. With RRIRFRPPRLPRPRPRPGTCPRP the “shrunken log2 fold change” value was -0.161. With RRIRTRPPRLPRPRPRPKVYPRP the “shrunken log2 fold change” value was 0.0324. With RRIRKRPPRLPRPRPRPREKPRP the “shrunken log2 fold change” value was -0.107. RRIRMRPPRLPRPRPRPCMSPRP was tested, and the “shrunken log2 fold change” value was -0.00161. With RRIRFRPPRLPRPRPRPRIRPRP the “shrunken log2 fold change” value was -0.075. For RRIRTRPPRLPRPRPRPFDAPRP, the “shrunken log2 fold change” value was -0.343. For RRIRSRPPRLPRPRPRPQVYPRP, the “shrunken log2 fold change” value was -0.276. With RRIRVRPPRLPRPRPRPDYEPRP the “shrunken log2 fold change” value was 0.0678. For RRIRLRPPRLPRPRPRPSSEPRP, the “shrunken log2 fold change” value was 0.0265. With RRIRKRPPRLPRPRPRPQRDPRP the “shrunken log2 fold change” value was 0.858. In the case of RRIRSRPPRLPRPRPRPRWTPRP, the “shrunken log2 fold change” value was 0.0635. In the case of RRIRTRPPRLPRPRPRPHTAPRP, the “shrunken log2 fold change” value was -0.0446. In the case of RRIRRRPPRLPRPRPRPRACPRP, the “shrunken log2 fold change” value was 0.352. With RRIRVRPPRLPRPRPRPHHSPRP the “shrunken log2 fold change” value was -0.593. In the case of RRIRGRPPRLPRPRPRPWAFPRP, the “shrunken log2 fold change” value was 0.488. For RRIRFRPPRLPRPRPRPTPPPRP, the “shrunken log2 fold change” value was 0.797. With RRIRLRPPRLPRPRPRPGRFPRP the “shrunken log2 fold change” value was 0.226. RRIRYRPPRLPRPRPRPIFLPRP was tested, and the “shrunken log2 fold change” value was -0.246. RRIRSRPPRLPRPRPRPLIFPRP was tested, and the “shrunken log2 fold change” value was -0.403. In the case of RRIRTRPPRLPRPRPRPIAMPRP, the “shrunken log2 fold change” value was -0.387. RRIRMRPPRLPRPRPRPINQPRP was tested, and the “shrunken log2 fold change” value was 0.257. With RRIRNRPPRLPRPRPRPGNPPRP the “shrunken log2 fold change” value was 0.0273. With RRIRPRPPRLPRPRPRPHVLPRP the “shrunken log2 fold change” value was -0.0256. For RRIRGRPPRLPRPRPRPMYQPRP, the “shrunken log2 fold change” value was -0.0304. For RRIRDRPPRLPRPRPRPDRHPRP, the “shrunken log2 fold change” value was -0.278. In the case of RRIRDRPPRLPRPRPRPCGAPRP, the “shrunken log2 fold change” value was 0.838. RRIRVRPPRLPRPRPRPLKYPRP was tested, and the “shrunken log2 fold change” value was -0.136. For RRIRGRPPRLPRPRPRPLCPPRP, the “shrunken log2 fold change” value was 0.422. With RRIRRRPPRLPRPRPRPPNGPRP the “shrunken log2 fold change” value was 0.407. With RRIRWRPPRLPRPRPRPHWAPRP the “shrunken log2 fold change” value was -0.102. With RRIRFRPPRLPRPRPRPPYNPRP the “shrunken log2 fold change” value was -0.323. For RRIRQRPPRLPRPRPRPLAWPRP, the “shrunken log2 fold change” value was 0.15. With RRIRLRPPRLPRPRPRPCVCPRP the “shrunken log2 fold change” value was -0.00623. For RRIRIRPPRLPRPRPRPITGPRP, the “shrunken log2 fold change” value was -0.0492. For RRIRNRPPRLPRPRPRPVSPPRP, the “shrunken log2 fold change” value was -0.087. In the case of RRIRQRPPRLPRPRPRPCMVPRP, the “shrunken log2 fold change” value was -0.0725. For RRIRARPPRLPRPRPRPIDPPRP, the “shrunken log2 fold change” value was 0.00727. For RRIRWRPPRLPRPRPRPQNYPRP, the “shrunken log2 fold change” value was -0.445. RRIRCRPPRLPRPRPRPTKHPRP was tested, and the “shrunken log2 fold change” value was 0.00206. For RRIRVRPPRLPRPRPRPLNVPRP, the “shrunken log2 fold change” value was -0.434. For RRIRWRPPRLPRPRPRPYTTPRP, the “shrunken log2 fold change” value was -0.537. In the case of RRIRERPPRLPRPRPRPSVFPRP, the “shrunken log2 fold change” value was -0.0831. In the case of RRIRMRPPRLPRPRPRPLYVPRP, the “shrunken log2 fold change” value was -0.111. RRIRARPPRLPRPRPRPNNWPRP was tested, and the “shrunken log2 fold change” value was 0.0825.
